The values below come from PMC3547835.

Assay [1] has as its target RHDV VP60 P domain fragment (a.a. 228-579), JX/CHA/97 isolate strain (rabbit hemorrhagic disease virus (JX/CHA/97 isolate strain)). The assay is described as follows: crystal structure; P domain (a.a. 228-579) crystals, space group P212121, hanging drop at 289 K, 0.1 M sodium acetate, 1.1 M succinic acid pH 5.5, 1.0% PEG2000MME; 2.0 Å; dimer in the asymmetric unit.
In assay [2] the target is RHDV major capsid protein VP60 (in the native virion, HYD isolate strain) (rabbit hemorrhagic disease virus (HYD isolate strain)). Nature of the assay: cryo-EM structure; RHDV virions purified from infected rabbit livers, TNE buffer, vitrified; FEI Titan Krios 300 keV; ~36,000 particles; 6.5 Å overall (FSC 0.5), 5.5 Å in the inner shell; pseudo-atomic model by docking of the S and P crystal structures and MDFF.

As to “RHDV VP60 P domain fragment (a.a. 228-579), JX/CHA/97 isolate strain (domain or fragment)”, the stoichiometry N in assay [1] was determined as 2.
The substance “RHDV major capsid protein VP60 (in the native virion, HYD isolate strain) (natural protein)” showed a stoichiometry N in assay [2] of 180.
